Our source for the Kd values is article PMC10379010, “Short Peptides of Innate Immunity Protein Tag7 (PGLYRP1) Selectively Induce Inhibition or Activation of Tumor Cell Death via TNF Receptor” (International Journal of Molecular Sciences, 2023).

The test concerns the target T1, soluble TNFR1 receptor domain (sTNFR1) (UniProt P19438 30-211, fluorescently labeled with Alexa Fluor 633 or Alexa Fluor 488 in the MST only).
T1 construct: TNF receptor TNFR1, soluble extracellular domain (sTNFR1); also called soluble TNFR1 site; source: recombinant, obtained as described in [10], purified
T1 sequence (looked up): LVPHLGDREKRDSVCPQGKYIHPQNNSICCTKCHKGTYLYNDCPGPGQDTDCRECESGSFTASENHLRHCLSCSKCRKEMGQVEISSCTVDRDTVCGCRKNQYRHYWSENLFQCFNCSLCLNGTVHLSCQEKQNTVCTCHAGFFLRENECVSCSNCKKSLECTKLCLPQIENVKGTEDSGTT
As to the kind of experiment: MST; sTNFR1 or Hsp70 labeled with Alexa Fluor 633 or 488 (200 nM), 20 min in the dark at room temperature with 16 concentrations of each compound; Monolith NT 115, IR laser power 10%; apparent Kd; triplicate. The note with it: both partners purified.

B1: Tag7 protein (PGLYRP1) (natural protein, UniProt O75594 22-196, looked up)
chain: QETEDPACCSPIVPRNEWKALASECAQHLSLPLRYVVVSHTAGSSCNTPASCQQQARNVQHYHMKTLGWCDVGYNFLIGEDGLVYEGRGWNFTGAHSGHLWNPMSIGISFMGNYMDRVPTPQAIRAAQGLLACGVAQGALRSNYVLKGHRDVQRTLSPGNQLYHLIQNWPHYRSP
notes: Tag7 (PGLYRP1), innate immunity protein; also called full-sized Tag7 protein; source: recombinant, obtained as described in [10]
B1: the Kd turned out to be 43.2 nM.

B2: peptide 17.1A (peptide)
peptide: HRDVQRT
notes: Not biotinylated; used in the MST and the cytotoxicity tests; source: synthetic peptide (Fmoc, HPLC purified)
Consider B2, for which the Kd stood at 5.44 nM.
